{"source": "patent US20180258187A1", "about": "(Memorial Sloan Kettering, published 2018)", "molecular_target": "EBV-LMP2 peptide presented by HLA-A*02:02 on artificial antigen presenting cells (human; Epstein-Barr virus)", "assay": "cell-based or functional assay", "data": [{"binder": "LMP2-38×CD3 bispecific antibody (bispecific antibody) QSALTQPASVSGSPGQSITISCTGTSSDVGSYNDVSWYQQHPGKAPKLMIYDVSNRPSGVSNRFSGSKSGNTASLTISGLQTEDEADYYCNSYTSSNTYVFGTGTKVTVLGQVQLVQSGAEVKKPGASVQVSCRASGYTITSYYMHWVRQAPGQGLEWMGVINPNAGSTRYAQKFQGRVTMSTDTSTSTVYMALSSLRSDDTAVYYCARGMYRMYDWGQGTLVTVSSDVQLVQSGAEVKKPGASVKVSCKASGYTFTRYTMHWVRQAPGQGLEWIGYINPSRGYTNYADSVKGRFTITTDKSTSTAYMELSSLRSEDTATYYCARYYDDHYCLDYWGQGTTVTVSSGEGTSTGSGGSGGSGGADDIVLTQSPATLSLSPGERATLSCRASQSVSYMNWYQQKPGKAPKRWIYDTSKVASGVPARFSGSGSGTDYSLTINSLEAEDAATYYCQQWSSNPLTFGGGTKVEIKHHHHHH", "values": [{"measurement": "EC50 (read off the curve), T cell cytotoxicity on peptide-pulsed aAPC expressing HLA-A*02:02", "result": "~0.02", "unit": "mg/L"}]}]}
